Blank lines part the entries; values can stand above or below the substance they belong to.
What was measured:
[1] = target: human FcγRI (CD64) on cells (human) (UniProt P12314); test: flow cytometry, fluorescein-conjugated antibody on peripheral blood monocytes
Target sequence in this assay (P12314 16-374): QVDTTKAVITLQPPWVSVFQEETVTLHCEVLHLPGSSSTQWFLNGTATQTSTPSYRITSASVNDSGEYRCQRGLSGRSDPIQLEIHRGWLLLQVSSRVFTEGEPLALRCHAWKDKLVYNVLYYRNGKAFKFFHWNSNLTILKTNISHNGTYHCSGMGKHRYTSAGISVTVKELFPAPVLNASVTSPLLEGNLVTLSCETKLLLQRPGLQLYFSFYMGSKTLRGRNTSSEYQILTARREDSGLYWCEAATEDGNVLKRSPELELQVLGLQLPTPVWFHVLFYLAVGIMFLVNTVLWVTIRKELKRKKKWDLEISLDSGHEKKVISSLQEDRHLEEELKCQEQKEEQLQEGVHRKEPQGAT

[2] = target: soluble fusion protein consisting of the extracellular domain of human FcγRI and human IgM heavy chain (sFcγRI-µ) (human) (UniProt P12314); test: ELISA on captured FcγRI/IgM heavy chain fusion protein, in excess human IgG1
[3] = target: soluble fusion protein consisting of the extracellular domain of human FcγRI and human IgM heavy chain (sFcγRI-µ) (human) (UniProt P12314); test: ELISA on captured FcγRI/IgM heavy chain fusion protein, against a nonspecific human IgG1
[4] = target: human FcγRI (CD64) on cells (human) (UniProt P12314); test: cell-based or functional assay

soluble fusion protein consisting of the extracellular domain of human FcγRI and human IgM heavy chain (sFcγRI-µ) (human), sequence (P12314 other isoform, or with tags, fused parts or gaps limits assumed): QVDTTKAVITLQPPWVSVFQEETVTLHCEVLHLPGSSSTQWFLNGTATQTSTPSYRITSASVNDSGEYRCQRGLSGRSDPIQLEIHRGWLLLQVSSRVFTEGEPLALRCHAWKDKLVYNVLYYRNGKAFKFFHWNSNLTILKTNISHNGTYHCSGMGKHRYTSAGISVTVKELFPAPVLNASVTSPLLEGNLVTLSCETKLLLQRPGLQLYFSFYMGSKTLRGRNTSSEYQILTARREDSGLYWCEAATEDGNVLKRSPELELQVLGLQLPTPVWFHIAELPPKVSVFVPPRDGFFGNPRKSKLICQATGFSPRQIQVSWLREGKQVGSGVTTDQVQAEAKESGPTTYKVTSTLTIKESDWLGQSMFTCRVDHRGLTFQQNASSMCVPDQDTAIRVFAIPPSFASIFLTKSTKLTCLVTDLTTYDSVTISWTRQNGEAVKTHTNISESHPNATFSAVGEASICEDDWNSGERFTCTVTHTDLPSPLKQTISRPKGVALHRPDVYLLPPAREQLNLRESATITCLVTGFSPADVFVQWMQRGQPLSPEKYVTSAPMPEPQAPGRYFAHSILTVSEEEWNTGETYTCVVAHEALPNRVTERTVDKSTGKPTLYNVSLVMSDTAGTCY

Antibody sites per cell (antibody sites per cell) [1]: 10000
Substance: murine anti-FcγRI monoclonal antibody M22

fold lower affinity than the chimeric mAb [2]: 5 fold
percent of binding via the Fv portion [3]: > 95%
Substance: NEWM VH/REI Vκ humanized mAb 22 (antibody)

human CD64 surface expression on macrophages of human CD64-transgenic mice [4]: < 50 % reduction
Substance: chemically linked M22 Fab′ multimer M22 F(ab′)3+

FcγRI expression on monocytes in whole blood (modulation assay) (% of the level prior to BsAb treatment) [4]: 50
Substance: TsAb m22 Fab′x32.2 Fab′xm22 Fab′
